Source: patent publication US20260159603A1

Target: huCD5-BTN (human) (UniProt P06127)
Assay: BLI in tandem, huCD5-BTN saturated with UCHT2 first; competitor UCHT2

Chain of huCD5-BTN (human) (P06127 25-372 limits assumed): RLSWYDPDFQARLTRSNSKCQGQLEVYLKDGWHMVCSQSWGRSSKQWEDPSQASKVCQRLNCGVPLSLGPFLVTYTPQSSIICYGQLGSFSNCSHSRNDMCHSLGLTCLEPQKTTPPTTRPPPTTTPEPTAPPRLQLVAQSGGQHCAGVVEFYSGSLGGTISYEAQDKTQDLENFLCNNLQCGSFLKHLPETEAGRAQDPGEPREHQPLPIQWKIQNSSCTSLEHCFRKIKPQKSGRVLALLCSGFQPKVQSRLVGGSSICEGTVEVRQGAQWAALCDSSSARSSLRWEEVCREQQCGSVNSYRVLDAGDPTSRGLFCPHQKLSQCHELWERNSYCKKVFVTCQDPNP

response (Response Units): 0
Substance: UCHT2 (antibody)
